Measured values taken from patent US20230381316A1 (published 2023).

Legend:
PSMA = test: previously reported; previously reported value
[1] = molecular target: T1, purified recombinant human PSMA protein (PSMA extracellular domain, baculovirus-insect cell expression) (UniProt Q04609 44-750); test: SPR (Biacore); Bivalent fit
[2] = molecular target: T1, purified recombinant human PSMA protein …; test: SPR (Biacore)
[3] = molecular target: T1, purified recombinant human PSMA protein …; test: SPR (Biacore); Langmuir fit

T1 sequence (Q04609 44-750): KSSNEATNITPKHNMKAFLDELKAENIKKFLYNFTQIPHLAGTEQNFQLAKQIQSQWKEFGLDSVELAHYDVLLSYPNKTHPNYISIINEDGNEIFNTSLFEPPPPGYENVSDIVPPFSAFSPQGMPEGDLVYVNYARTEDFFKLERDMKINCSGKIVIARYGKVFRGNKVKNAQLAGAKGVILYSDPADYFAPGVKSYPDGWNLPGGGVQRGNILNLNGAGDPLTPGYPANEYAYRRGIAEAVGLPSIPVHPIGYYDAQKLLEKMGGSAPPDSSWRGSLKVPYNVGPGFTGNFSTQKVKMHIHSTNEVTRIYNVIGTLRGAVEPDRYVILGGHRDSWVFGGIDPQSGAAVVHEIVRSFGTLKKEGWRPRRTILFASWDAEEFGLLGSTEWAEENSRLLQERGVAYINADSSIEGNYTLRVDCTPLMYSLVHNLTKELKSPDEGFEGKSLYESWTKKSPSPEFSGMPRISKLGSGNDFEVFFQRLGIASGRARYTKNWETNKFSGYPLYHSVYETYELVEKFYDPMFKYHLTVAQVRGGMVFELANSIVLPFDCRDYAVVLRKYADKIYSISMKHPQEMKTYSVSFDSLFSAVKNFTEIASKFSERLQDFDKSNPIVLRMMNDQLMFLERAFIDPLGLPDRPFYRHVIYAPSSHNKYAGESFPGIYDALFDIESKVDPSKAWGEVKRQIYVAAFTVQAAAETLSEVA

B1: J591 (antibody, V domains shown)
VH: EVQLQQSGPELVKPGTSVRISCKTSGYTFTEYTIHWVKQSHGKSLEWIGNINPNNGGTTYNQKFEDKATLTVDKSSSTAYMELRSLTSEDSAVYYCAAGWNFDYWGQGTTLTVSS
VL: DIVMTQSHKFMSTSVGDRVSIICKASQDVGTAVDWYQQKPGQSPKLLIYWASTRHTGVPDRFTGSGSGTDFTLTITNVQSEDLADYFCQQYNSYPLTFGAGTMLDLK
Binder B1 has a Kd (PSMA) of 1.83 nM.

B2: anti-PSMA mouse monoclonal antibody #1377 (antibody, V domains shown)
VH: VQLQQPGAALVRPGASVRLSCKASGYSFTYYWMNWVMQRPGQGLEWIGMIHPSDSETRLSQKFRDKATLTVDKSSSTVYMQLNSPTSDDSAVYYCARDGNFPYYALDYWGQGTSVTVSS
VL: DVVLTQAPLSLPVSLGDQASISCRSSQSLEYSNGNTYLHWYLQKPGQSPELLIYTVSNRFSGVPDRFSGSGSGTDFTLKIHRVEAEDLGVYFCSQSTHVPTFGGGTKLEIKR
B2 was tested, and the Kd [1] was 18.6 nM and the Kd [2] was 18.6 nM.

B3: ScFv Fc 445 (antibody)
chain: VQLQQPGAALVRPGASVRLSCKASGYSFTYYWMNWVMQRPGQGLEWIGMIHPSDSETRLSQKFRDKATLTVDKSSSTVYMQLNSPTSDDSAVYYCARDGNFPYYALDYWGQGTSVTVSSGGGGSGGGGSGGGGSDVVLTQAPLSLPVSLGDQASISCRSSQSLEYSNGNTYLHWYLQKPGQSPELLIYTVSNRFSGVPDRFSGSGSGTDFTLKIHRVEAEDLGVYFCSQSTHVPTFGGGTKLEIKR
For B3, the Kd [1] was 2.55 nM.

B4: ScFv Fc 446 (antibody, V domains shown)
VH: VKLQESGPGLVAPSQSLSITCTVSGFSLTDYGVSWIRQPPGKGLEWLGVIWSDGNTYYNSPLKSRLSINKDNSKSQVFLKMNSLQTDDSAMYYCARHKVYTMDYWGQGTSVTVSS
VL: TVLTQSPAIMSASPGEKVTMTCRASSSVSSSYLHWYQQKSSASPKLWIYRTSNLASGVPARFSGSGSGTSYSLTISSLEAEDAATYYCQQYSGYPLTFGAGTKLELKR
In the case of B4, the Kd [1] is reported as 1160 nM.

B5: anti-PSMA mouse monoclonal antibody #1366 (antibody, V domains shown)
VH: VKLQESGPGLVAPSQSLSITCTVSGFSLTDYGVSWIRQPPGKGLEWLGVIWSDGNTYYNSPLKSRLSINKDNSKSQVFLKMNSLQTDDSAMYYCARHKVYTMDYWGQGTSVTVSS
VL: TVLTQSPAIMSASPGEKVTMTCRASSSVSSSYLHWYQQKSSASPKLWIYRTSNLASGVPARFSGSGSGTSYSLTISSLEAEDAATYYCQQYSGYPLTFGAGTKLELKR
In the case of B5, the Kd [1] is reported as 295 nM and the Kd [2] is reported as 295 nM.

B6: anti-PSMA mouse monoclonal antibody #1207 (antibody, V domains shown)
VH: VKLQQSGPGLVKPSQSLSLTCAVTGYSITSDYAWNWIRKFPGNKLEWMGYISYSGRTTYNPSLESRISITRDTSKNQFFLQLNSVTTEDTATYYCARCYYGSSSRWYGMDYWGRGTSVAVSS
VL: IVLTQSPAIMSASPGVKVTMTCRASSSVDSSYLHWYQQKSGASPQVWIYSTSNLASGVPARFSGSGSGTSYSLTISSVEAEDAATYYCQQYSGYPLTFGGGTKLEIKR
In the case of B6, the Kd [1] is reported as 8.13 nM and the Kd [2] is reported as 8.13 nM.

B7: ScFv Fc 444 (antibody, V domains shown)
VH: VQLQQSGPELEKPGASVKMSCKASGYSFTGYNVNWVRQNNGKSLEWIGNIDPLHGGTTYNQKFKAKATLTVDRSSSTAYLQLKNLTSEDSAVYYCARSSRFDYWGQGTTLTVSS
VL: DIVMTQSHKFMSTSVGDRVNITCKASQDVGTAVAWYQQKPGQSPKLLIYWASTRHTGVPDRFTGSGSGTDFTLTISNVQSEDLADYFCHQFTSYPFTFGSGTSLEMKR
B7 gave a Kd [1] of 4.35 nM.

B8: anti-PSMA mouse monoclonal antibody #1352 (antibody, V domains shown)
VH: VKLQQSGPELEKPGASVKISCKASGYSFTGYNVNWVKQSNGKSLEWIGNIDPYHGGTTYNQKFEAKATLTVDKSSSTAYMQLKSLTSEDSAVYYCARSSRFDYWGQGTTLTVSS
VL: DIVMTQSHKFMSTSVGDRVNITCKASQDVGTAVAWYQQKPGQSPKFLIYWASTRHTGVPDRFTGSGSGTDFTLTISNVQSEDLADYFCHQYTSYPFTFGSGTKLEMKR
In the case of B8, the Kd [1] is reported as 1.99 nM and the Kd [2] is reported as 1.99 nM.

B9: anti-PSMA mouse monoclonal antibody #219 (antibody, V domains shown)
VH: VQLQQSGPELEKPGASVKMSCKASGYSFTGYNVNWVRQNNGKSLEWIGNIDPLHGGTTYNQKFKAKATLTVDRSSSTAYLQLKNLTSEDSAVYYCARSSRFDYWGQGTTLTVSS
VL: DIVMTQSHKFMSTSVGDRVNITCKASQDVGTAVAWYQQKPGQSPKLLIYWASTRHTGVPDRFTGSGSGTDFTLTISNVQSEDLADYFCHQFTSYPFTFGSGTSLEMKR
B9 gave a Kd [2] of 2.64 nM and a Kd [3] of 2.64 nM.
